By stoichiometry N is commonly meant a count of units in the complex or per binding partner.

Experimental findings from article PMC5415311 are described below.

For this assay, the target named is adeno-associated virus (AAV)-DJ capsid protein. Briefly: cryo-EM structure.

For the substance “adeno-associated virus (AAV)-DJ capsid protein”, the stoichiometry N turned out to be 60.
